This note sets out measurements from patent US20070286861A1, “Immunoglobulins” (published 2007).

The term % inhibition denotes the drop in the measured response relative to a control, in per cent. Usually IC50 stands for the concentration that gives 50% inhibition.

The target of assay [1] is T1, human Oncostatin M (hOSM) (human).
T1 chain: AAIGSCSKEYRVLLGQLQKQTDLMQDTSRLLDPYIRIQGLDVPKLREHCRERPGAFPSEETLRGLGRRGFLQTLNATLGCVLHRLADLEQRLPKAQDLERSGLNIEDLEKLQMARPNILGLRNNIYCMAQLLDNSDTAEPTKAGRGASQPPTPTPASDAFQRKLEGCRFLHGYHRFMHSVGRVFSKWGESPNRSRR
Put plainly: gp130 inhibition ELISA, CHO supernatant; legend: NA: inhibition is less than 50%.

Assay [2] deals with T2, cynomolgus monkey OSM (cOSM) (cynomolgus monkey).
T2 chain: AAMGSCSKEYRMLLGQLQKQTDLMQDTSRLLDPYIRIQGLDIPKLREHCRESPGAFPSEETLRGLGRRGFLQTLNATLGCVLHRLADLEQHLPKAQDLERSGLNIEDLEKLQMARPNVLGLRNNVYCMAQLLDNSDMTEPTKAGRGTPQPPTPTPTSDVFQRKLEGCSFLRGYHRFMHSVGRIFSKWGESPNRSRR
Described as above.

In assay [3] the target is T1, human Oncostatin M (hOSM).
Assay [4] deals with T2, cynomolgus monkey OSM (cOSM).
Assay [5] deals with T1, human Oncostatin M (hOSM). The assay can be described thus: gp130 ELISA. Background: ELISA stands for enzyme-linked immunosorbent assay.
For assay [6], the target named is T2, cynomolgus monkey OSM (cOSM). The assay can be described thus: gp130 ELISA.
Assay [7] addresses T1, human Oncostatin M (hOSM).
Assay [8] deals with T3, glycosylated human OSM produced in CHO cells (human).
T3 sequence (chain, glycosylated (CHO cell glycosylated)): T1 chain

Assay [9] deals with T4, glycosylated human OSM produced in CHO cells (human, glycosylated (CHO cell glycosylated)).
T4 chain: T1 chain
Put plainly: gp130 inhibition ELISA (Table 4; OSM taken as CHO produced hOSM of FIG. 17).

In assay [10] the target is T1, human Oncostatin M (hOSM). Put plainly: gp130 inhibition ELISA (antibody pre-incubated with OSM; OSM bound to plate-coated gp130-Fc detected).
Assay [11] addresses T1, human Oncostatin M (hOSM). Put plainly: gp130 inhibition ELISA.
Assay [12] addresses T2, cynomolgus monkey OSM (cOSM). The assay can be described thus: gp130 inhibition ELISA.
Assay [13] has as its target T1, human Oncostatin M (hOSM). The assay can be described thus: gp130 inhibition ELISA, CHO supernatant.
Assay [14] addresses T2, cynomolgus monkey OSM (cOSM). The assay can be described thus: gp130 inhibition ELISA, CHO supernatant.

Where a chain is given by its changes, count along the chain named. Like-named read-outs stand apart in the source and are kept apart here. Where only a bound is given, the exact number is not on record here.

B1: humanised 15E10 antibody B1L1 (antibody, V domains shown)
VH: QVQLVESGGGVVQPGRSLRLSCAASGFSLTNYGVHWVRQAPGKGLEWVAVIWRGGSTDYNAAFMSRFTISRDNSKNTLYLQMNSLRAEDTAVYYCARSPNSNFYWYFDVWGRGTLV
VL: EIVLTQSPATLSLSPGERATLSCSGSSSVSYMYWYQQKPGQAPRLLIYDTSNLASGIPARFSGSGSGTDFTLTISNLEPEDFAVYYCQQWSSYPPTFGQGTKLEIK
On to B1, for which the “% inhibition” value in assay [1] and in assay [2] was less than 50% throughout.

B2: Humanised antibody 10D3 DLE (antibody, V domains shown)
VH: EVQLVQSGAEVKKPGASVKVSCKASGYIFTDYNMDWVRQAPGQKLEWIGDINPNNGGTIDNQKFKDRATLTVDKSTSTVYMELSSLRSEDTAVYYCARGIYYYGSHYFDYWGQGTLVTVSS
VL: EIVLTQSPSSLSASVGDRVTITCSATSSVSVMHWFQKKPGKAPKRWIYDTSKLASGVPSRFSGSGSGTDYTLTISSLQPEDFATYYCQQWSSNPLTFGGGTKVDIKR
Turning to B2, the IL-6 release from KB cells (KB cell assay), IC50 in [3] is 0.205 µg/mL; in assay [4], 0.07 µg/mL. Further, the figures for the concentration for half-maximal inhibition (IC50) in assay [5] and in assay [6] were 0.021 µg/mL and 0.059 µg/mL, respectively.

B3: 15E10 murine antibody (antibody, V domains shown)
VH: QVQLKQSGPGLVQPSQSLSITCTVSGFSLTNYGVHWVRQSPGKGLEWLGVIWRGGSTDYNAAFMSRLSITKDNSRSQVFFKMNSLQADDTAIYYCAKSPNSNFYWYFDVWGTGTTVTVSS
VL: QIVLTQSPTIMSASPGEKVTMTCSGSSSVSYMYWYQEKPGSSPRLLIEDTSNLASGVPARFSGSGSGTSYSLTISRMEAEDAATYYCQQWSSYPPTFGSGTKLEIK
On to B3, for which the IL-6 release from KB cells (KB cell assay), IC50 in [7] stood at 0.195 µg/mL; in assay [8], 0.053 µg/mL. For the same molecule, the IC50 in [9] worked out at 0.009 µg/mL; in [10] it was 0.059 µg/mL.

B4: 15E10 chimaeric antibody (antibody, V domains shown)
VH: B3 VH
VL: B3 VL
As to B4, the IL-6 release from KB cells (KB cell assay), IC50 in assay [7] worked out at 0.11 µg/mL; in assay [8], 0.079 µg/mL. Besides, the half-maximal inhibitory concentration (IC50) in assay [11] was 0.07 µg/mL; in assay [12], 0.06 µg/mL; in [9] it was 0.019 µg/mL; in assay [10], 0.036 µg/mL.

B5: humanised 15E10 antibody B3L2 (wild type Fc) (antibody, V domains shown)
VH: QVQLVESGGGVVQPGRSLRLSCAASGFSLTNYGVHWVRQAPGKGLEWVAVIWRGGSTDYNAAFMSRFTISKDNSKNTLYLQMNSLRAEDTAVYYCAKSPNSNFYWYFDVWGRGTLVTVSS
VL: EIVLTQSPATLSLSPGERATLSCSGSSSVSYMYWYQQKPGQAPRLLIEDTSNLASGIPARFSGSGSGTDYTLTISNLEPEDFAVYYCQQWSSYPPTFGQGTKLEIKR
For the molecule B5, in assay [8], the IL-6 release from KB cells (KB cell assay), IC50 is 0.123 µg/mL. It took 0.035 µg/mL to reach half-maximal inhibition in [9] (IC50).

B6: humanised 15E10 antibody B1L2 (antibody, V domains shown)
VH: B5 VH with K71R, K97R
VL: B1 VL with Y48E, F70Y
As for B6, the IC50 in assay [13] amounted to 0.334 µg/mL; in assay [14] it was 0.11 µg/mL.

B7: humanised 15E10 antibody B4L2 (antibody, V domains shown)
VH: B5 VH with F67L
VL: B5 VL
As for B7, the IC50 in [13] worked out at 0.048 µg/mL; in assay [14], 0.04 µg/mL.

B8: humanised 15E10 antibody B4L1 (antibody, V domains shown)
VH: B5 VH with F67L
VL: B1 VL
With B8, half-maximal inhibition in [14] (IC50) required 0.167 µg/mL. Moreover, in [1], the “% inhibition” value was less than 50%.

B9: 10D3 murine antibody (antibody, V domains shown)
VH: EVQLQQSGPELVKPGASVKISCKASGYIFTDYNMDWVKQSHGKKLEWIGDINPNNGGTIDNQKFKDKATLTVDKSSSTAYMELRSLTSEDTAVYYCARGIYYYGSHYFDYWGQGTTLTVSS
VL: QIVLTQSPAIMSASPGEKVTMTCSATSSVSVMHWFQKKSGTSPKRWIYDTSKLASGVPTRFSGSGSGTSYSLTISSMEAEDTATYYCQQWSSNPLTFGSGTKLELK
The molecule B9 returned an IL-6 release from KB cells (KB cell assay), IC50 in [7] of 0.114 µg/mL. This molecule also came in with a half-maximal inhibitory concentration (IC50) in [10] of 0.107 µg/mL.

B10: 10D3 chimaeric antibody (antibody, V domains shown)
VH: B9 VH
VL: B9 VL
For B10, in assay [7], the IL-6 release from KB cells (KB cell assay), IC50 was 0.107 µg/mL. Besides, the IC50 in assay [5] worked out at 0.032 µg/mL; in assay [6], 0.246 µg/mL; in [10] it was 0.057 µg/mL.
